{"source": "paper PMC2172211", "about": "(The Journal of Cell Biology, 2004)", "binders": {"B1": {"name": "His-tagged DaPKC (enzyme, Drosophila, UniProt A1Z9X0 1-606, looked up)", "chain": "MQKMPSQILNDGSSVSLNSASMNMANTPNSITVKTAYNGQIIITTINKNISYEELCYEIRNICRFPLDQPFTIKWVDEENDPCTISTKMELDEAIRLYEMNFDSQLVIHVFPNVPQAPGLSCDGEDRSIYRRGARRWRKLYRVNGHIFQAKRFNRRAFCAYCQDRIWGLGRQGFKCIQCKLLVHKKCHKLVQKHCTDQPEPLVKERAEESSDPIPVPLPPLPYEAMSGGAEACETHDHAHIVAPPPPEDPLEPGTQRQYSLNDFELIRVIGRGSYAKVLMVELRRTRRIYAMKVIKKALVTDDEDIDWVQTEKHVFETASNHPFLVGLHSCFQTPSRLFFVIEFVRGGDLMYHMQRQRRLPEEHARFYAAEISLALNFLHEKGIIYRDLKLDNVLLDHEGHIKLTDYGMCKEGIRPGDTTSTFCGTPNYIAPEILRGEDYGFSVDWWALGVLLYEMLAGRSPFDLAGASENPDQNTEDYLFQVILEKTIRIPRSLSVRAASVLKGFLNKNPADRLGCHRESAFMDIVSHPFFKNMDWELLERKQVTPPFKPRLDSDRDLANFPPEFTGEAVQLTPDDDHVIDNIDQSEFEGFEYVNPLLMSLEDCV"}}, "target": "T1, GST-Patj (Drosophila, UniProt Q9NB04 1-871)", "T1 sequence (looked up)": "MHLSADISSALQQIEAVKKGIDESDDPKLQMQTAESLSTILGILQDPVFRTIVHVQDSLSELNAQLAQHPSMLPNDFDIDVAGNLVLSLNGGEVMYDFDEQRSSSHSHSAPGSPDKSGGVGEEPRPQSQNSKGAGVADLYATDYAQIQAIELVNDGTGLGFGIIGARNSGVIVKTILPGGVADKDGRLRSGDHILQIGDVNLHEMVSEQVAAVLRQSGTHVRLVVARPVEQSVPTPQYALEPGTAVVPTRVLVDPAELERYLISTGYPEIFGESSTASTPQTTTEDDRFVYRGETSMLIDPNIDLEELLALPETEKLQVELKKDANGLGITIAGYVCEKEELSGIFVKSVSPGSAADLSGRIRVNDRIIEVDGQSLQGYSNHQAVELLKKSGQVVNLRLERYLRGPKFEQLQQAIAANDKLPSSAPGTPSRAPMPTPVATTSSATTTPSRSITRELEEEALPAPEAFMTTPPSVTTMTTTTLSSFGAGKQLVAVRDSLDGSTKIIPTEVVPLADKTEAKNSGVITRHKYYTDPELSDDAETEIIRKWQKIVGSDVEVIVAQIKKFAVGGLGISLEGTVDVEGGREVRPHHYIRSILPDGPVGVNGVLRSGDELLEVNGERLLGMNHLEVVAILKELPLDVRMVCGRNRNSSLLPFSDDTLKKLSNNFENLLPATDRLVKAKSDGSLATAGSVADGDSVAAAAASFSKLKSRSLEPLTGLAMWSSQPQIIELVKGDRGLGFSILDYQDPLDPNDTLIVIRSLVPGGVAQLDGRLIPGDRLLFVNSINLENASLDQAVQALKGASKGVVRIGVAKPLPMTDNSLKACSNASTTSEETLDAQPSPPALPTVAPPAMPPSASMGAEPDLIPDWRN", "test": "pull-down", "data": [{"binder": "B1", "values": [{"measurement": "binding result", "value": "binds"}]}]}
